Test results taken from article PMC3969988.
Several values for one entry are separate records, joined by “and”; a condition that tells them apart may be missing. Identical values can stand only once.

Key:
[1] = target: T1, recombinant human CAP1 (human), Q01518; test: ELISA; conditions: remark: other sources report otherwise
T1 chain: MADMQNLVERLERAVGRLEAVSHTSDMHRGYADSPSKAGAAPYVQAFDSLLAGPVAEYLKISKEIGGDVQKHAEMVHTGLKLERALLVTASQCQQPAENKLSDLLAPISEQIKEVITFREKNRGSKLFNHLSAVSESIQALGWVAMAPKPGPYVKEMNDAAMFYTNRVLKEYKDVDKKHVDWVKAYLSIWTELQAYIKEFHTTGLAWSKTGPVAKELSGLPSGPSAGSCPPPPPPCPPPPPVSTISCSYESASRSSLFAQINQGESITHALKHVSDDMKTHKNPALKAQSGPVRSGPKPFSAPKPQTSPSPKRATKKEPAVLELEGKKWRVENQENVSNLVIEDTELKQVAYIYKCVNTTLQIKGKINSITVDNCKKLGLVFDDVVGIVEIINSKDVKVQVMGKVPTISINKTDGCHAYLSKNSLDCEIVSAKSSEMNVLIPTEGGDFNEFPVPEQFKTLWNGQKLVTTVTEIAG

[2] = target: T2, adenovirus-delivered human resistin (human), Q9HD89; test: non-reducing SDS gel; conditions: remark: other sources report otherwise
T2 chain: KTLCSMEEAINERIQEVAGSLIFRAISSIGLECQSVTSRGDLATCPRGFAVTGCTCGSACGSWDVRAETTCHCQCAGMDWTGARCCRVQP

B1: non-Fc-conjugated recombinant human resistin protein, Q9HD89 19-108 (ligand)
chain: T2 chain
- EC50 [1]: 784 nM

B2: adenovirus-delivered human resistin, Q9HD89 19-108 (ligand)
chain: T2 chain
- stoichiometry N [2]: 3 and 2
